Data: PMC10323247

Key:
[1] = biological target: GMPCPP- and Taxol-stabilised TAMRA-labelled microtubules of porcine brain tubulin (porcine) (UniProt P02550); test: TIRF microscopy binding assay; 1 nM GFP-augmin on surface-attached TAMRA-microtubules with importin α, importin β (25-400 nM) or importin α/β (25-100 nM each), with or without 3.5 μM RanQ69L; BRB80 binding buffer; 30°C
[2] = biological target: recombinant human augmin complex (GFP-augmin), all eight full-length subunits HAUS1-HAUS8 (human) (UniProt Q96CS2); test: single-molecule TIRF fluorescence intensity analysis; GFP-augmin particles diffusing on microtubules; particle intensity divided by the intensity of single mGFP-augmin particles (photobleaching experiment); details: remark: other sources report otherwise

recombinant human augmin complex (GFP-augmin), all eight full-length subunits HAUS1-HAUS8 (from UniProt Q96CS2-1 1-278; Q9NVX0-1 1-235; Q68CZ6-1 1-603; Q9H6D7-1 1-363; O94927-1 1-633; Q7Z4H7-1 1-955; Q99871-1 1-358; Q9BT25-1 1-410)
median background-corrected fluorescence intensity on microtubules with 100 nM importin α/β and 3.5 µM RanQ69L [1]: 338 | median background-corrected fluorescence intensity on microtubules with 400 nM importin β and 3.5 µM RanQ69L [1]: 273 | median background-corrected fluorescence intensity on microtubules, control without importin [1]: 321

recombinant human augmin complex (GFP-augmin), all eight full-length subunits HAUS1-HAUS8, Q96CS2-1 1-278; Q9NVX0-1 1-235; Q68CZ6-1 1-603; Q9H6D7-1 1-363; O94927-1 1-633; Q7Z4H7-1 1-955; Q99871-1 1-358; Q9BT25-1 1-410
stoichiometry N [2]: < 10
